{"source": "paper PMC10329019", "about": "“Membrane translocation process revealed by in situ structures of type II secretion system secretins” (Nature Communications, 2023)", "key": {"[1]": {"biological_target": "the molecule itself", "assay": "cryo-EM structure; in situ cryo-ET subtomogram averaging of GspDα particles on the inner membrane of E. coli BL21 (DE3) minicells; about 32,000 particles, C15 symmetry, 9 Å; particle radius histogram"}, "[2]": {"biological_target": "the molecule itself", "assay": "cryo-EM structure; in situ cryo-ET subtomogram averaging of particles on the outer membrane of E. coli minicells overexpressing GspDβ and GspS; 514 particles, C15 symmetry, 19 Å; C5 refinement as a test of symmetry"}, "[3]": {"biological_target": "the molecule itself", "assay": "cryo-EM structure; in situ cryo-ET subtomogram averaging of particles on the outer membrane of E. coli minicells overexpressing only GspDβ; 723 particles, C15 symmetry, 16 Å; C5 refinement as a test of symmetry"}}}
{"protein": "GspDα secretin (E. coli K12 strain), no tag (natural protein, UniProt P45758 24-650, looked up, The untagged vector was used for cryo-ET imaging; the His-tagged one only for blots; also called Klebsiella-type secretin; GspDα multimer; copies: 15) ENEQYGANFNNADIRQFVEIVGQHLGKTILIDPSVQGTISVRSNDTFSQQEYYQFFLSILDLYGYSVITLDNGFLKVVRSANVKTSPGMIADSSRPGVGDELVTRIVPLENVPARDLAPLLRQMMDAGSVGNVVHYEPSNVLILTGRASTINKLIEVIKRVDVIGTEKQQIIHLEYASAEDLAEILNQLISESHGKSQMPALLSAKIVADKRTNSLIISGPEKARQRITSLLKSLDVEESEEGNTRVYYLKYAKATNLVEVLTGVSEKLKDEKGNARKPSSSGAMDNVAITADEQTNSLVITADQSVQEKLATVIARLDIRRAQVLVEAIIVEVQDGNGLNLGVQWANKNVGAQQFTNTGLPIFNAAQGVADYKKNGGITSANPAWDMFSAYNGMAAGFFNGDWGVLLTALASNNKNDILATPSIVTLDNKLASFNVGQDVPVLSGSQTTSGDNVFNTVERKTVGTKLKVTPQVNEGDAVLLEIEQEVSSVDSSSNSTLGPTFNTRTIQNAVLVKTGETVVLGGLLDDFSKEQVSKVPLLGDIPLVGQLFRYTSTERAKRNLMVFIRPTIIRDDDVYRSLSKEKYTRYRQEQQQRIDGKSKALVGSEDLPVLDENTFNSHAPAPSSR", "values": [{"measurement": "stoichiometry N", "setting": "[1]", "value": 15}]}
{"protein": "GspDβ secretin (ETEC H10407 strain) with hexahistidine tag, from pETDuet-gspDβ-his-gspS, co-expressed with GspS (natural protein, UniProt E3PJ86 41-686, looked up, GspDβ, Vibrio-type type II secretion system secretin encoded in the T2SSβ operon, ETEC H10407 strain; Probably the same C-terminally tagged chain as m2 (surmised); also called Vibrio-type secretin; copies: 15) EEATFTANFKDTDLKSFIETVGANLNKTIIMGPGVQGKVSIRTMTPLNERQYYQLFLNLLEAQGYAVVPMENDVLKVVKSSAAKVEPLPLVGEGSDNYAGDEMVTKVVPVRNVSVRELAPILRQMIDSAGSGNVVNYDPSNVIMLTGRASVVERLTEVIQRVDHAGNRTEEVIPLDNASASEIARVLESLTKNSGENQPATLKSQIVADERTNSVIVSGDPATRDKMRRLIRRLDSEMERSGNSQVFYLKYSKAEDLVDVLKQVSGTLTAAKEEAEGTVGSGREIVSIAASKHSNALIVTAPQDIMQSLQSVIEQLDIRRAQVHVEALIVEVAEGSNINFGVQWASKDAGLMQFANGTQIPIGTLGAAISQAKPQKGSTVISENGATTINPDTNGDLSTLAQLLSGFSGTAVGVVKGDWMALVQAVKNDSSSNVLSTPSITTLDNQEAFFMVGQDVPVLTGSTVGSNNSNPFNTVERKKVGIMLKVTPQINEGNAVQMVIEQEVSKVEGQTSLDVVFGERKLKTTVLANDGELIVLGGLMDDQAGESVAKVPLLGDIPLIGNLFKSTADKKEKRNLMVFIRPTILRDGMAADGVSQRKYNYMRAEQIYRDEQGLSLMPHTAQPVLPAQNQALPPEVRAFLNAGRTR", "values": [{"measurement": "stoichiometry N", "setting": "[2]", "value": 15}]}
{"protein": "GspDβ secretin (ETEC H10407 strain) with C-terminal hexahistidine tag, from pETDuet-gspDβ-his, expressed alone (natural protein, UniProt E3PJ86 41-686, looked up, GspDβ, Vibrio-type type II secretion system secretin encoded in the T2SSβ operon, ETEC H10407 strain; The results name BL21(DE3) for this experiment, the methods name Rosetta (DE3) for cryo-ET imaging; also called Vibrio-type secretin; source: E. coli Rosetta (DE3) minicells (co-transformed with pBS58), pETDuet-gspDβ-his, overexpressed, imaged in the cells; copies: 15) EEATFTANFKDTDLKSFIETVGANLNKTIIMGPGVQGKVSIRTMTPLNERQYYQLFLNLLEAQGYAVVPMENDVLKVVKSSAAKVEPLPLVGEGSDNYAGDEMVTKVVPVRNVSVRELAPILRQMIDSAGSGNVVNYDPSNVIMLTGRASVVERLTEVIQRVDHAGNRTEEVIPLDNASASEIARVLESLTKNSGENQPATLKSQIVADERTNSVIVSGDPATRDKMRRLIRRLDSEMERSGNSQVFYLKYSKAEDLVDVLKQVSGTLTAAKEEAEGTVGSGREIVSIAASKHSNALIVTAPQDIMQSLQSVIEQLDIRRAQVHVEALIVEVAEGSNINFGVQWASKDAGLMQFANGTQIPIGTLGAAISQAKPQKGSTVISENGATTINPDTNGDLSTLAQLLSGFSGTAVGVVKGDWMALVQAVKNDSSSNVLSTPSITTLDNQEAFFMVGQDVPVLTGSTVGSNNSNPFNTVERKKVGIMLKVTPQINEGNAVQMVIEQEVSKVEGQTSLDVVFGERKLKTTVLANDGELIVLGGLMDDQAGESVAKVPLLGDIPLIGNLFKSTADKKEKRNLMVFIRPTILRDGMAADGVSQRKYNYMRAEQIYRDEQGLSLMPHTAQPVLPAQNQALPPEVRAFLNAGRTR", "values": [{"measurement": "stoichiometry N", "setting": "[3]", "value": 15}]}
